Measured values published in article PMC2946844.

T1: 1xMBD-GFP (UniProt Q9Z2E2 1-75)
T1 sequence: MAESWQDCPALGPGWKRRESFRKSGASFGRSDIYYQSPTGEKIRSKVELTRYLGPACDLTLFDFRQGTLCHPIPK

B1: o_o_o/o_o_o (dsDNA)
DNA 1: TTTGCGGTCCGCTGCCCGACCC
DNA 2: GGGTCGGGCAGCGGACCGCAAA
B2: m_o_o/o_o_o (dsDNA)
DNA 1: TTTGCGGTCCGCTGCCCGACCC
DNA 2: GGGTCGGGCAGCGGACCGCAAA
modifications: strand 1 5mC5
B3: o_o_m/m_o_o (dsDNA)
DNA 1: TTTGCGGTCCGCTGCCCGACCC
DNA 2: GGGTCGGGCAGCGGACCGCAAA
modifications: strand 1 5mC17; strand 2 5mC17
B4: o_m_m/m_o_o (dsDNA)
DNA 1: TTTGCGGTCCGCTGCCCGACCC
DNA 2: GGGTCGGGCAGCGGACCGCAAA
modifications: strand 1 5mC10,5mC17; strand 2 5mC17
B5: o_o_o/o_m_m (dsDNA)
DNA 1: TTTGCGGTCCGCTGCCCGACCC
DNA 2: GGGTCGGGCAGCGGACCGCAAA
modifications: strand 2 5mC5,5mC12
B6: m_o_o/o_m_m (dsDNA)
DNA 1: TTTGCGGTCCGCTGCCCGACCC
DNA 2: GGGTCGGGCAGCGGACCGCAAA
modifications: strand 1 5mC5; strand 2 5mC5,5mC12
B7: m_o_o*/o_m_m (dsDNA)
DNA 1: GTAGTTTGCGGTCCGCTGCCCGACC
DNA 2: GGGTCGGGCAGCGGACCGCAAA
modifications: strand 1 5mC9; strand 2 5mC5,5mC12
B8: o_m_o/o_m_m (dsDNA)
DNA 1: TTTGCGGTCCGCTGCCCGACCC
DNA 2: GGGTCGGGCAGCGGACCGCAAA
modifications: strand 1 5mC10; strand 2 5mC5,5mC12
B9: o_o_m/o_m_m (dsDNA)
DNA 1: TTTGCGGTCCGCTGCCCGACCC
DNA 2: GGGTCGGGCAGCGGACCGCAAA
modifications: strand 1 5mC17; strand 2 5mC5,5mC12
B10: o_m_m/o_m_m (dsDNA)
DNA 1: TTTGCGGTCCGCTGCCCGACCC
DNA 2: GGGTCGGGCAGCGGACCGCAAA
modifications: strand 1 5mC10,5mC17; strand 2 5mC5,5mC12
B11: o_o_o/o_m_o (dsDNA)
DNA 1: TTTGCGGTCCGCTGCCCGACCC
DNA 2: GGGTCGGGCAGCGGACCGCAAA
modifications: strand 2 5mC12
B12: m_o_o/o_m_o (dsDNA)
DNA 1: TTTGCGGTCCGCTGCCCGACCC
DNA 2: GGGTCGGGCAGCGGACCGCAAA
modifications: strand 1 5mC5; strand 2 5mC12
B13: m_o_o*/o_o_o (dsDNA)
DNA 1: GTAGTTTGCGGTCCGCTGCCCGACC
DNA 2: GGGTCGGGCAGCGGACCGCAAA
modifications: strand 1 5mC9
B14: m_o_o*/o_m_o (dsDNA)
DNA 1: GTAGTTTGCGGTCCGCTGCCCGACC
DNA 2: GGGTCGGGCAGCGGACCGCAAA
modifications: strand 1 5mC9; strand 2 5mC12
B15: o_m_o/o_m_o (dsDNA)
DNA 1: TTTGCGGTCCGCTGCCCGACCC
DNA 2: GGGTCGGGCAGCGGACCGCAAA
modifications: strand 1 5mC10; strand 2 5mC12
B16: o_o_m/o_m_o (dsDNA)
DNA 1: TTTGCGGTCCGCTGCCCGACCC
DNA 2: GGGTCGGGCAGCGGACCGCAAA
modifications: strand 1 5mC17; strand 2 5mC12
B17: o_m_m/o_m_o (dsDNA)
DNA 1: TTTGCGGTCCGCTGCCCGACCC
DNA 2: GGGTCGGGCAGCGGACCGCAAA
modifications: strand 1 5mC10,5mC17; strand 2 5mC12
B18: o_o_o/m_o_m (dsDNA)
DNA 1: TTTGCGGTCCGCTGCCCGACCC
DNA 2: GGGTCGGGCAGCGGACCGCAAA
modifications: strand 2 5mC5,5mC17
B19: m_o_o/m_o_m (dsDNA)
DNA 1: TTTGCGGTCCGCTGCCCGACCC
DNA 2: GGGTCGGGCAGCGGACCGCAAA
modifications: strand 1 5mC5; strand 2 5mC5,5mC17
B20: m_o_o*/m_o_m (dsDNA)
DNA 1: GTAGTTTGCGGTCCGCTGCCCGACC
DNA 2: GGGTCGGGCAGCGGACCGCAAA
modifications: strand 1 5mC9; strand 2 5mC5,5mC17
B21: o_m_o/m_o_m (dsDNA)
DNA 1: TTTGCGGTCCGCTGCCCGACCC
DNA 2: GGGTCGGGCAGCGGACCGCAAA
modifications: strand 1 5mC10; strand 2 5mC5,5mC17
B22: o_o_m/m_o_m (dsDNA)
DNA 1: TTTGCGGTCCGCTGCCCGACCC
DNA 2: GGGTCGGGCAGCGGACCGCAAA
modifications: strand 1 5mC17; strand 2 5mC5,5mC17

What follows are binders tested against T1, 1xMBD-GFP (assay: SPR).
Work on B1 yielded a Kd of 72 ± 5 µM. B2 gave a Kd of 35 ± 1 µM. B3 was tested, and the Kd was 5.97 ± 0.08 µM. For B4, the Kd was 3.47 ± 0.05 µM. For B5, the Kd was 4.28 ± 0.05 µM. For B6, the Kd was 3.67 ± 0.03 µM. B7 showed a Kd of 3.74 ± 0.06 µM. B8 showed a Kd of 0.252 ± 0.002 µM. B9 gave a Kd of 0.116 ± 0.001 µM. Binder B10 has a Kd of 0.139 ± 0.007 µM. Work on B11 yielded a Kd of 12 ± 1 µM. In the case of B12, the Kd is reported as 5.5 ± 0.9 µM. In the case of B13, the Kd is reported as 13.1 ± 0.3 µM. With B14 the Kd was 5.41 ± 0.05 µM. With B15 the Kd was 0.244 ± 0.002 µM. B16 was tested, and the Kd was 2.3 ± 0.06 µM. B17 showed a Kd of 0.271 ± 0.005 µM. In the case of B18, the Kd is reported as 5.7 ± 0.3 µM. For B19, the Kd was 2.08 ± 0.02 µM. With B20 the Kd was 0.564 ± 0.004 µM. For B21, the Kd was 8.6 ± 0.1 µM. With B22 the Kd was 0.179 ± 0.001 µM.
